Experiments:
SKOV3-Luc cells = test: SKOV3 xenograft in NSG mice; settings: 1 × 10^6 SKOV3-Luc s.c., a week later 3 × 10^6 SAR-T i.v.
U266 cells = test: JNG NFAT-GFP induction on co-culture with U266; type: cell-based
L363 cells = test: JNG assay, co-culture with L363 cells; type: cell-based; settings: co-culture with L363
How it was run: (§1)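 Jurkat NFAT-GFP (JNG) cells stably transduced with SARs by lentivirus, with drug selection where the construct carried a resistance gene, then co-cultured with target cells at E:T ~1:2 for ~4–18 h. % GFP-positive cells measured by FACS against parental JNG; +/- to 5+ correspond to ~5–50% GFP-positive.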

Nalm6 cells = test: JNG assay, co-culture with Nalm6 cells; type: cell-based; settings: co-culture with Nalm6
How it was run: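 Values are semi-quantitative grades of GFP induction, each step approximating 10% more GFP+ cells (5+ ≈50%) above parental reporter cells, measured by FACS after SAR-transduced JNG cells were cultured with targets at ~1:2 E:T for ~4–18 h.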

RAJI cells = test: JNG assay, co-culture with RAJI cells; type: cell-based; settings: JNG cells expressing construct, co-culture with Raji
How it was run: as §1

B1: 10380 (protein)
chain: MALPVTALLLPLALLLHAARPEVQLVESGGGLVQPGGSLRLSCAASGFTFTTYWMHWVRQAPGKGLEWVGYIRPSTGYTEYNQKFKDRFTISADTSKNTAYLQMNSLRAEDTAVYYCARSRWLLDYWGQGTLVTVSGGGGSGGGGSGGGGSDIQMTQSPSSLSASVGDRVTITCKSSQSVLYSSNQKNYLAWFQQKPGKAPKLLIYWASTRESGVPSRFSGSGSGTDFTLTISSLQPEDFATYFCHQYLSSYTFGQGTKVEIKRTREQKLISEEDLAKPTTTPAPRPPTPAPTIASQPLSLRPEACRPAAGGAVHTRGLDFACDIYIWAPLAGTCGVLLLSLVITLYCKRGRKKLLYIFKQPFMRPVQTTQEEDGCSCRFPEEEEGGCELRVKFSRSADAPAYQQGQNQLYNELNLGRREEYDVLDKRRGRDPEMGGKPRRKNPQEGLYNELQKDKMAEAYSEIGMKGERRRGKGHDGLYQGLSTATKDTYDALHMQALPPR
modifications: Synthetic Polynucloetide
Q: Which “tumor inhibition / protection, SKOV3 xenograft” value (SKOV3-Luc cells) does the source give for B1 here?
A: weak protection

B2: 22151 (protein)
chain: MALPVTALLLPLALLLHAARPMLPAPKNLVVSRITEDSARLSWTAPDAAFDSFPIRYIETLIWGEAIWLDVPGSERSYDLTGLKPGTEYAVVITGVKGGRFSSPLVASFTTGTGGGGSGGGGSGGGGSEFSYVLTQPPSVSVAPGQTARITCGGNNIGGKSVHWYQQPPGQAPVVVVYDDSDRPSGIPERFSGSNSGNTATLTISRVEAGDEAVYYCQVWDSSSDHVVFGGGTKLTVLLEDLKNVFPPEVAVFEPSEAEISHTQKATLVCLATGFYPDHVELSWWVNGKEVHSGVCTDPQPLKEQPALNDSRYCLSSRLRVSATFWQNPRNHFRCQVQFYGLSENDEWTQDRAKPVTQIVSAEAWGRADCGFTSESYQQGVLSATILYEILLGKATLYAVLVSALVLMAMVKRKDSRGRAKRSGSGATNFSLLKQAGDVEENPGPTSMDWIWRILFLVGAATGAHSFEQLQLQESGPGLVKPSETLSLTCTVSGGSISSSSYFWGWIRQPPGKGLEWIGSIYYSGITYYNPSLKSRVTISVDTSKNQFSLKLSSVTAADTAVYYCARHDGAVAGLFDYWGQGTLVTVSSATRIQNPDPAVYQLRDSKSSDKSVCLFTDFDSQTNVSQSKDSDVYITDKCVLDMRSMDFKSNSAVAWSNKSDFACANAFNNSIIPEDTFFPSPESSCDVKLVEKSFETDTNLNFQNLSVIGFRILLLKVAGFNLLMTLRLWSSRAKRSGSGVKQTLNFDLLKLAGDVESNPGPSRGHMTEYKPTVRLATRDDVPRAVRTLAAAFADYPATRHTVDPDRHIERVTELQELFLTRVGLDIGKVWVADDGAAVAVWTTPESVEAGAVFAEIGPRMAELSGSRLAAQQQMEGLLAPHRPKEPAWFLATVGVSPDHQGKGLGSAVVLPGVEAAERAGVPAFLETSAPRNLPFYERLGFTVTADVEVPEGPRTWCMTRKPGA
Q: What does the source list for B2?
A: NFAT-GFP ASSAY: U266 (U266 cells): 4+ (refer to approximately 5%, 10%, 20%, 30%, 40% and 50% GFP positive cells); NFAT-GFP ASSAY: L363 (L363 cells): 2+ (refer to approximately 5%, 10%, 20%, 30%, 40% and 50% GFP positive cells)

B3: 22246 (protein)
chain: MALPVTALLLPLALLLHAARPACEVQLLESGGGLIQPGGSLRLSCAASGFTFSSHAMTWVRQAPGKGLEWVSAISGSGDYTHYADSVKGRFTISRDNSKNTVYLQMNSLRAEDSAVYYCAKDEDGGSLLGHRGQGTLVTVSSGTGPQGIFGQPGYINEFDIQMTQSPSSLSASVGDRVTITCKASDHINNWLAWYQQKPGQAPKLLIYGATTLETGVPSRFSGSGSGTDYTLTISSLQPEDFATYYCQQSWNTPWTFGQGTKLEIKRLEDLKNVFPPEVAVFEPSKAEIAHTQKATLVCLATGFYPDHVELSWWVNGKEVHSGVCTDPQPLKEQPALNDSRYCLSSRLRVSATFWQNPRNHFRCQVQFYGLSENDEWTQDRAKPVTQIVSAEAWGRADCGITSASYHQGVLSATILYEILLGKATLYAVLVSALVLMAMVKRKDSRGRAKRSGSGATNFSLLKQAGDVEENPGPTSATMDWIWRILFLVGAATGAHSGPEVQLVESGGGLVQAGGSLRLSCAASGRTFSMGWFRQAPGKEREFVAAITYSGGSPYYADSVKGRFTISRDNAKNTVYLQMNSLKPEDTAVYYCAANPTYGSDWNAENWGQGTQVTVSSGSGGGGSGGGGSGGGGSFEQVQLQQPGAELVKPGASVKMSCKASGYAFSSYWINWMKQKPGQGLEWIGQIYPGDGDTNYNGKFKGRATLTADTSSSTAYMQLSSLTSEDSAVYFCARSITTVVGCAMDYWGQGTSVTVSSTRIQNPDPAVYQLRDSKSSDKSVCLFTDFDSQTNVSQSKDSDVYITDKCVLDMRSMDFKSNSAVAWSNKSDFACANAFNNSIIPEDTFFPSPESSCDVKLVEKSFETDTNLNFQNLSVIGFRILLLKVAGFNLLMTLRLWSSRAKRSGSGVKQTLNFDLLKLAGDVESNPGPSRGHMTEYKPTVRLATRDDVPRAVRTLAAAFADYPATRHTVDPDRHIERVTELQELFLTRVGLDIGKVWVADDGAAVAVWTTPESVEAGAVFAEIGPRMAELSGSRLAAQQQMEGLLAPHRPKEPAWFLATVGVSPDHQGKGLGSAVVLPGVEAAERAGVPAFLETSAPRNLPFYERLGFTVTADVEVPEGPRTWCMTRKPGA
Q: How did the “NFAT-GFP ASSAY: U266” value (U266 cells) turn out when B3 was run?
A: 2+ (refer to approximately 5%, 10%, 20%, 30%, 40% and 50% GFP positive cells)

Q: What about the “NFAT-GFP ASSAY: L363” value (L363 cells) of the same molecule?
A: + (refer to approximately 5%, 10%, 20%, 30%, 40% and 50% GFP positive cells)

Q: And the “NFAT-GFP ASSAY: Nalm6” value (Nalm6 cells)?
A: + (refer to approximately 5%, 10%, 20%, 30%, 40% and 50% GFP positive cells)

B4: 22160 (protein)
chain: MALPVTALLLPLALLLHAARPACEVQLLESGGGLIQPGGSLRLSCAASGFTFSSHAMTWVRQAPGKGLEWVSAISGSGDYTHYADSVKGRFTISRDNSKNTVYLQMNSLRAEDSAVYYCAKDEDGGSLLGHRGQGTLVTVSSGTGGGGSGGGGSGGGGSEFDIQMTQSPSSLSASVGDRVTITCKASQDVGIAVAWYQQKPGKVPKLLIYWASTRHTGVPDRFSGSGSGTDFTLTISSLQPEDVATYYCQQYSSYPYTFGQGTKVEIKRLEADVSPKPTIFLPSIAETKLQKAGTYLCLLEKFFPDVIKIHWQEKKSNTILGSQEGNTMKTNDTYMKFSWLTVPEKSLDKEHRCIVRHENNKNGVDQEIIFPPIKTDVITMDPKDNCSKDANDTLLLQLTNTSAYYMYLLLLLKSVVYFAIITCCLLRRTAFCCNGEKSRAKRSGSGATNFSLLKQAGDVEENPGPTSMDWIWRILFLVGAATGAHSGPQVQLQESGGGLAQAGGSLRLSCAASGRTFSMGWFRQAPGKEREFVAAITYSGGSPYYASSVRGRFTISRDNAKNTVYLQMNSLKPEDTAVYYCAANPTYGSDWNAENWGQGTQVTVSSGSGGGGSGGGGSGGGGSFEQVQLQQPGAELVKPGASVKMSCKASGYAFSSYWINWMKQKPGQGLEWIGQIYPGDGDTNYNGKFKGRATLTADTSSSTAYMQLSSLTSEDSAVYFCARSITTVVGCAMDYWGQGTSVTVSSTRPHTKPSVFVMKNGTNVACLVKEFYPKDIRINLVSSKKITEFDPAIVISPSGKYNAVKLGKYEDSNSVTCSVQHDNKTVHSTDFEVKTDSTDHVKPKETENTKQPSKSCHKPKAIVHTEKVNMMSLTVLGLRMLFAKTVAVNFLLTAKLFFLRAKRSGSGVKQTLNFDLLKLAGDVESNPGPSRGHMTEYKPTVRLATRDDVPRAVRTLAAAFADYPATRHTVDPDRHIERVTELQELFLTRVGLDIGKVWVADDGAAVAVWTTPESVEAGAVFAEIGPRMAELSGSRLAAQQQMEGLLAPHRPKEPAWFLATVGVSPDHQGKGLGSAVVLPGVEAAERAGVPAFLETSAPRNLPFYERLGFTVTADVEVPEGPRTWCMTRKPGA
Q: Which results are given for B4?
A: NFAT-GFP ASSAY: U266 (U266 cells): 3+ (refer to approximately 5%, 10%, 20%, 30%, 40% and 50% GFP positive cells); NFAT-GFP ASSAY: L363 (L363 cells): + (refer to approximately 5%, 10%, 20%, 30%, 40% and 50% GFP positive cells); NFAT-GFP ASSAY: Raji (RAJI cells): 2+ (refer to approximately 5%, 10%, 20%, 30%, 40% and 50% GFP positive cells); NFAT-GFP ASSAY: Nalm6 (Nalm6 cells): + (refer to approximately 5%, 10%, 20%, 30%, 40% and 50% GFP positive cells)

B5: 22150 (protein)
chain: MALPVTALLLPLALLLHAARPACEVQLLESGGGLIQPGGSLRLSCAASGFTFSSHAMTWVRQAPGKGLEWVSAISGSGDYTHYADSVKGRFTISRDNSKNTVYLQMNSLRAEDSAVYYCAKDEDGGSLLGHRGQGTLVTVSSGTGGGGSGGGGSGGGGSEFDVVMTQSPSSLSASVGDRVTITCMASEDIYIRLAWYQQKPGNAPKLLIYAATSLETGVPSRFSGSGSGTDFTLTISSLQPEDFATYYCQQYWSSPWTFGGGTKVEIKLEADVSPKPTIFLPSIAETKLQKAGTYLCLLEKFFPDVIKIHWQEKKSNTILGSQEGNTMKTNDTYMKFSWLTVPEKSLDKEHRCIVRHENNKNGVDQEIIFPPIKTDVITMDPKDNCSKDANDTLLLQLTNTSAYYMYLLLLLKSVVYFAIITCCLLRRTAFCCNGEKSRAKRSGSGATNFSLLKQAGDVEENPGPTSMDWIWRILFLVGAATGAHSGPQVQLQESGGGLAQAGGSLRLSCAASGRTFSMGWFRQAPGKEREFVAAITYSGGSPYYASSVRGRFTISRDNAKNTVYLQMNSLKPEDTAVYYCAANPTYGSDWNAENWGQGTQVTVSSGSGGGGSGGGGSGGGGSFEQVQLQESGPGLVKPSQTLSLTCTVSGYSITSDYTWNWIRQPPGNGLEWIGYITYSGSTSYNPSLKSRVLISVDTSKNQVSLKLSSVTAADTAVYYCARLGRRYTMDYWGQGTTVTVSSTRPHTKPSVFVMKNGTNVACLVKEFYPKDIRINLVSSKKITEFDPAIVISPSGKYNAVKLGKYEDSNSVTCSVQHDNKTVHSTDFEVKTDSTDHVKPKETENTKQPSKSCHKPKAIVHTEKVNMMSLTVLGLRMLFAKTVAVNFLLTAKLFFLRAKRSGSGVKQTLNFDLLKLAGDVESNPGPSRGHMTEYKPTVRLATRDDVPRAVRTLAAAFADYPATRHTVDPDRHIERVTELQELFLTRVGLDIGKVWVADDGAAVAVWTTPESVEAGAVFAEIGPRMAELSGSRLAAQQQMEGLLAPHRPKEPAWFLATVGVSPDHQGKGLGSAVVLPGVEAAERAGVPAFLETSAPRNLPFYERLGFTVTADVEVPEGPRTWCMTRKPGA
Q: Which “NFAT-GFP ASSAY: U266” value (U266 cells) does the source give for B5 here?
A: + (refer to approximately 5%, 10%, 20%, 30%, 40% and 50% GFP positive cells)

Q: And the “NFAT-GFP ASSAY: L363” value (L363 cells)?
A: +/- (refer to approximately 5%, 10%, 20%, 30%, 40% and 50% GFP positive cells)

Q: And the “NFAT-GFP ASSAY: Raji” value (RAJI cells)?
A: + (refer to approximately 5%, 10%, 20%, 30%, 40% and 50% GFP positive cells)
